The subject of this test is S. aureus strain 8325-4. In words: Viability assay (colony-forming units). The test is classed as cell-based, Staphylococcus aureus. Conditions: 50 U of ClyS, in 30 min. The protocol: The unit activity of ClyS was defined by measuring the spectrophotometric loss of turbidity, indicative of cell lysis, of S. aureus 8325-4 cells upon adding serial dilutions of ClyS. In our assays, 5 micrograms of ClyS corresponded to 1 U of lytic activity. When 50 U of ClyS was added to exponentially growing 8325-4 cells the OD600 dropped to baseline within 5 min (FIG. 7). To confirm that the observed cell lysis corresponds to cell death, staphylococcal viability was determined by enumerating aliquots from the lytic reaction at various time points.
The viability assay of ClyS was tested as previously described (Nelson et al, 2001). Briefly, log phase cultures of S. aureus strain 8325-4 were resuspended in PB to OD600 of 0.8-1.0. 50 U of ClyS or the corresponding volume of PB was added to bacterial cells and aliquots were removed, serially diluted, and plated at 1, 5, 10, 30, and 60 minutes to assess the viability of the treated and control cells. All experiments were performed in triplicate. The activity of ClyS on various bacterial strains was tested as described previously (Schuch et al, 2002). Briefly, log phase bacterial cells were treated with 50 U of ClyS at 37° C. for 15 minutes. The samples were serially diluted and plated. Control experiments with the addition of phosphate buffer (pH 7.0) were performed under the same conditions.

In patent publication US11827911B2, “Chimeric bacteriophage lysin with activity against Staphylococci bacteria” (priority 2008, dated 2023) one finds decrease in viability data, which are given here for one molecule.

B1: ClyS: chimeric lysin: Twort lysin endopeptidase domain attached to the phiNM3 CWT domain, 280 amino acid residues (protein)
chain: METLKQAESYIKSKVNTGTDFDGLYGYQCMDLAVDYIYHVTDGKIRMWGNAKDAINNSFGGTATVYKNYPAFRPKYGDVVVWTTGNFATYGHIAIVTNPDPYGDLQYVTVLEQNWNGNGIYKTELATIRTHDYTGITHFIRPNFATESSVKKKDTKKKPKPSNRDGLNKDKIVYDRTNINYNMVLQGKSASKITVGSKAPYNLKWSKGAYFNAKIDGLGATSATRYGDNRTNYRFDVGQAVYAPGTLIYVFEIIDGWCRIYWNNHNEWIWHERLIVKEVF
modifications: Chimeric of Staphylococcus aureus bacteriophage Twort domain and Staphylococcus aureus phage phiNM3 CWT domain
notes: chimeric lysin: Twort lysin endopeptidase domain attached to the phiNM3 CWT domain, 280 amino acid residues
For the molecule B1, the decrease in viability result was “approximately 3 logs”.
